Test results taken from paper PMC7137648, “Molecular and Cellular Interactions of Scavenger Receptor SR-F1 With Complement C1q Provide Insights Into Its Role in the Clearance of Apoptotic Cells” (Frontiers in Immunology, 2020).

B1: SR-F1(20-421), recombinant soluble SR-F1 ectodomain (domain or fragment, human)
chain: SELDPKGQHVCVASSPSAELQCCAGWRQKDQECTIPICEGPDACQKDEVCVKPGLCRCKPGFFGAHCSSRCPGQYWGPDCRESCPCHPHGQCEPATGACQCQADRWGARCEFPCACGPHGRCDPATGVCHCEPGWWSSTCRRPCQCNTAAARCEQATGACVCKPGWWGRRCSFRCNCHGSPCEQDSGRCACRPGWWGPECQQQCECVRGRCSAASGECTCPPGFRGARCELPCPAGSHGVQCAHSCGRCKHNEPCSPDTGSCESCEPGWNGTQCQQPCLPGTFGESCEQQCPHCRHGEACEPDTGHCQRCDPGWLGPRCEDPCPTGTFGEDCGSTCPTCVQGSCDTVTGDCVCSAGYWGPSCNASCPAGFHGNNCSVPCECPEGLCHPVSGSCQPGSGSRDTLIK
modifications: N-linked glycans at Asn 289, 382 and 393
notes: scavenger receptor class F member 1 (SR-F1, SREC-I, SCARF1), human, extracellular domain with EGF-like repeats 1-10; Mass 49.1 kDa by MALDI-TOF (polypeptide 44.0 kDa plus N-glycans); also called SR-F1 extracellular domain; not shown: His8, C-terminal, kept
B2: recombinant human calreticulin (CRT) (natural protein, UniProt P27797 18-417, looked up)
chain: EPAVYFKEQFLDGDGWTSRWIESKHKSDFGKFVLSSGKFYGDEEKDKGLQTSQDARFYALSASFEPFSNKGQTLVVQFTVKHEQNIDCGGGYVKLFPNSLDQTDMHGDSEYNIMFGPDICGPGTKKVHVIFNYKGKNVLINKDIRCKDDEFTHLYTLIVRPDNTYEVKIDNSQVESGSLEDDWDFLPPKKIKDPDASKPEDWDERAKIDDPTDSKPEDWDKPEHIPDPDAKKPEDWDEEMDGEWEPPVIQNPEYKGEWKPRQIDNPDYKGTWIHPEIDNPEYSPDPSIYAYDNFGVLGLDLWQVKSGTIFDNFLITNDEAYAEEFGNETWGVTKAAEKQMKDKQDEEQRLKEEEEDKKRKEEEEAEDKEDDEDKDEDEEDEEDKEEDEEEDVPGQAKDEL
notes: calreticulin, human, recombinant; MW = 49,431 g/mol used for quantification; In the endocytosis assay the protein was labelled with Alexa Fluor 568 succinimidyl ester; also called rCRT; AF568-rCRT

Assays:
Details in all cases: both partners purified
complement protein C1q [1] = biological target: T1, complement protein C1q (human, UniProt P02745 23-245; P02746 28-253; P02747 29-245); test: SPR; SR-F1(20-421), SR-F1(20-353) or SR-F1(20-221) injected at five increasing concentrations (multiple cycle kinetics) over covalently immobilized C1q (about 16,000 RU, CM5, amine coupling), BSA reference surface, TBS-Ca-P pH 7.4 (2 mM CaCl2), 20 μl/min, 25°C; global fit, 1:1 Langmuir model; apparent KD
T1 construct: complement C1q A-chain, human; C1q is 18 polypeptide chains assembled into 6 triple helices of A-chain, B-chain and C-chain (460 kDa); complement C1q B-chain, human; complement C1q C-chain, human; also called whole C1q; serum C1q; source: purified from human serum; copies: 6 + 6 + 6

[2] = biological target: B1; test: SPR; reverse configuration: soluble SR-F1(20-421) over immobilized CRT (3,320 RU); apparent KD; data not shown
[3] = biological target: B1; test: SPR; CRT injected at five increasing concentrations (single cycle kinetics) over covalently immobilized SR-F1(20-421) (1,845 RU) in TBS-Ca-P at 30 μl/min, 25°C; global fit, two-state reaction model; apparent KD
complement protein C1q [4] = biological target: T1, complement protein C1q; test: SPR; N-glycosylation site mutants of SR-F1(20-421) with C1q (Figures S5A-C), n = 2; which partner was immobilised is not told in the text shown; apparent affinity
[5] = biological target: B2; test: SPR; SR-F1(20-353) and SR-F1(20-221) fragments with CRT (Figure S7); which partner was immobilised is not told in the text shown

T1 sequence (P02745 23-245, chain 1 of 3): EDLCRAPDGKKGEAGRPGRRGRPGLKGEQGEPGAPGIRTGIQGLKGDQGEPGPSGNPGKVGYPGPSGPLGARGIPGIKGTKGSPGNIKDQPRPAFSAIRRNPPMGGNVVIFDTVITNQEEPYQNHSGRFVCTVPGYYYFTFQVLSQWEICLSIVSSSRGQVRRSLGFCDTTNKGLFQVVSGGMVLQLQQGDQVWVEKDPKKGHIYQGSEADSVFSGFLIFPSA
T1 sequence (P02746 28-253, chain 2 of 3): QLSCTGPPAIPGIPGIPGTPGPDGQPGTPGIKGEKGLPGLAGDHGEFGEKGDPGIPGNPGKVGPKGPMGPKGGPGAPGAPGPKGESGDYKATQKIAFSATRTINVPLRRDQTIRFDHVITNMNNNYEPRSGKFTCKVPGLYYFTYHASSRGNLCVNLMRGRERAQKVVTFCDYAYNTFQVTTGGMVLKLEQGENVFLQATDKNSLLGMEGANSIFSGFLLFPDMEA
T1 sequence (P02747 29-245, chain 3 of 3): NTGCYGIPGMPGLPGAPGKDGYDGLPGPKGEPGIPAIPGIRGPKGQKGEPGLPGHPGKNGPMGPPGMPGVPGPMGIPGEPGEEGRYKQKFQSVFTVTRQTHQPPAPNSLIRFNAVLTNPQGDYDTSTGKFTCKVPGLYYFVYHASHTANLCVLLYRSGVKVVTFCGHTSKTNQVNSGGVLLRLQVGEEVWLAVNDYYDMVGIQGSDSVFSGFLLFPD

Kd (complement protein C1q [1]) | koff (complement protein C1q [1]) | kon (complement protein C1q [1]) | t1/2 (half-life of the complex, ln2/kd) (complement protein C1q [1]) | Kd [2] | Kd [3] | Kd (complement protein C1q [4]) | binding result [5] | Binder
186 nM | 0.00126 s⁻¹ | 6840 M⁻¹ s⁻¹ | 550 s | – | – | – | – | B1
– | – | – | – | 770 nM | 345 ± 8 nM | – | – | B2
– | – | – | – | – | – | 604 nM | – | SR-F1(20-421) N382Q (domain or fragment, human, N-linked glycans on the two remaining sites (Asn 289, Asn 393), SR-F1 (SCARF1), human, ectodomain as m1 with Asn 382 replaced by Gln; also called SR-F1 N382Q; N382Q mutant) SELDPKGQHVCVASSPSAELQCCAGWRQKDQECTIPICEGPDACQKDEVCVKPGLCRCKPGFFGAHCSSRCPGQYWGPDCRESCPCHPHGQCEPATGACQCQADRWGARCEFPCACGPHGRCDPATGVCHCEPGWWSSTCRRPCQCNTAAARCEQATGACVCKPGWWGRRCSFRCNCHGSPCEQDSGRCACRPGWWGPECQQQCECVRGRCSAASGECTCPPGFRGARCELPCPAGSHGVQCAHSCGRCKHNEPCSPDTGSCESCEPGWNGTQCQQPCLPGTFGESCEQQCPHCRHGEACEPDTGHCQRCDPGWLGPRCEDPCPTGTFGEDCGSTCPTCVQGSCDTVTGDCVCSAGYWGPSCQASCPAGFHGNNCSVPCECPEGLCHPVSGSCQPGSGSRDTLIK
– | – | – | – | – | – | 589 ± 20 nM | – | SR-F1(20-421) N393Q (domain or fragment, human, N-linked glycans on the two remaining sites (Asn 289, Asn 382), SR-F1 (SCARF1), human, ectodomain as m1 with Asn 393 replaced by Gln; also called SR-F1 N393Q; N393Q mutant) SELDPKGQHVCVASSPSAELQCCAGWRQKDQECTIPICEGPDACQKDEVCVKPGLCRCKPGFFGAHCSSRCPGQYWGPDCRESCPCHPHGQCEPATGACQCQADRWGARCEFPCACGPHGRCDPATGVCHCEPGWWSSTCRRPCQCNTAAARCEQATGACVCKPGWWGRRCSFRCNCHGSPCEQDSGRCACRPGWWGPECQQQCECVRGRCSAASGECTCPPGFRGARCELPCPAGSHGVQCAHSCGRCKHNEPCSPDTGSCESCEPGWNGTQCQQPCLPGTFGESCEQQCPHCRHGEACEPDTGHCQRCDPGWLGPRCEDPCPTGTFGEDCGSTCPTCVQGSCDTVTGDCVCSAGYWGPSCNASCPAGFHGNQCSVPCECPEGLCHPVSGSCQPGSGSRDTLIK
32.4 nM | 0.00209 s⁻¹ | 70000 M⁻¹ s⁻¹ | 331 s | – | – | – | binds | SR-F1(20-353) (domain or fragment, human, N-linked glycan at Asn 289, SR-F1 (SCARF1), human, EGF-like repeats 1-8; kept here by the cloning as described; The Leu-Ile-Lys and 8 His tail is printed for the parent plasmid only; not shown: His8, C-terminal, kept) SELDPKGQHVCVASSPSAELQCCAGWRQKDQECTIPICEGPDACQKDEVCVKPGLCRCKPGFFGAHCSSRCPGQYWGPDCRESCPCHPHGQCEPATGACQCQADRWGARCEFPCACGPHGRCDPATGVCHCEPGWWSSTCRRPCQCNTAAARCEQATGACVCKPGWWGRRCSFRCNCHGSPCEQDSGRCACRPGWWGPECQQQCECVRGRCSAASGECTCPPGFRGARCELPCPAGSHGVQCAHSCGRCKHNEPCSPDTGSCESCEPGWNGTQCQQPCLPGTFGESCEQQCPHCRHGEACEPDTGHCQRCDPGWLGPRCEDPCPTGTFGEDCGSLIK
17.7 nM | 0.00303 s⁻¹ | 185000 M⁻¹ s⁻¹ | 229 s | – | – | – | binds | SR-F1(20-221) (domain or fragment, human, SR-F1 (SCARF1), human, EGF-like repeats 1-5, lacks EGF-like modules 6 to 10 and the three N-glycosylation sites; construct encodes the 221 first residues, named 20-221 as secreted protein; kept here by the cloning as described; The Leu-Ile-Lys and 8 His tail is printed for the parent plasmid only; also called SR-F1(1-221); SR-F(20-221); not shown: His8, C-terminal, kept) SELDPKGQHVCVASSPSAELQCCAGWRQKDQECTIPICEGPDACQKDEVCVKPGLCRCKPGFFGAHCSSRCPGQYWGPDCRESCPCHPHGQCEPATGACQCQADRWGARCEFPCACGPHGRCDPATGVCHCEPGWWSSTCRRPCQCNTAAARCEQATGACVCKPGWWGRRCSFRCNCHGSPCEQDSGRCACRPGWWGPECQQLIK
